The record followed here is article PMC12049944, “Lecithin:cholesterol acyltransferase binds a discontinuous binding site on adjacent apolipoprotein A-I belts in HDL” (Journal of Lipid Research, 2025).

This series deals with the molecule itself. Kind of series: SEC; LCAT alone on triple Superdex 200 Increase, run beside rHDL alone and the cross-linked mixture.

B1: Lecithin:cholesterol acyltransferase (recombinant, expressed in CHO cells) (enzyme, human, UniProt P04180 25-440, looked up)
chain: FWLLNVLFPPHTTPKAELSNHTRPVILVPGCLGNQLEAKLDKPDVVNWMCYRKTEDFFTIWLDLNMFLPLGVDCWIDNTRVVYNRSSGLVSNAPGVQIRVPGFGKTYSVEYLDSSKLAGYLHTLVQNLVNNGYVRDETVRAAPYDWRLEPGQQEEYYRKLAGLVEEMHAAYGKPVFLIGHSLGCLHLLYFLLRQPQAWKDRFIDGFISLGAPWGGSIKPMLVLASGDNQGIPIMSSIKLKEEQRITTTSPWMFPSRMAWPEDHVFISTPSFNYTGRDFQRFFADLHFEEGWYMWLQSRDLLAGLPAPGVEVYCLYGVGLPTPRTYIYDHGFPYTDPVGVLYEDGDDTVATRSTELCGLWQGRQPQPVHLLPLHGIQHLNMVFSNLTLEHINAILLGAYRQGPPASPTASPEPPPPE
notes: Lecithin:cholesterol acyltransferase, human; cross-links to 'LCAT residue 1' (the N-terminus) are reported; Used for all non-cryoEM experiments (cross-linking, SEC, negative-stain EM, activity assays); also called LCAT; human LCAT; source: CHO cells, recombinant, gifted by Alan Remaley
Turning to B1, the binding result is on record as “binds”.
